Tests used:
[1] = Clearance of IL-22 and IL-22 fusion proteins from serum; assay type: in vivo, C57BL/6 mice; settings: 256 ng/g human IL-22 or molar equivalents, i.p.
Protocol: (§1) Targeting to IL-22 to pancreas: Non-obese male C57BL/6 at 6-8 weeks of age. Each IL-22-GLP-1R ligand fusion protein or hIL-22 was administered i.p. at 256 ng/g of IL-22 and the molar equivalents for the individual fusion proteins (n=3 per regimen). IL-22-ScaB1 was administered at […]. Control mice received a PBS control i.p. injection only.
Serum concentrations of IL-22 and the IL-22-GLP-1R ligand fusion proteins were determined using a human IL-22 double-determinant ELISA (Biolegend; 434505) against a standard curve for the individual fusion proteins.

[2] = system: mice with high fat diet induced obesity; assay: Dose-finding efficacy study (IPGTT) in mice on a high fat diet for 27 weeks; assay type: in vivo, C57BL/6 male mice
Protocol: C57BL/6 male mice from 6-8 weeks of age were fed a high fat diet containing 46% of available energy as saturated fat, 34% carbohydrate, 20% protein (Speciality feeds, SF04-027) for 27 weeks and treated as follows:
IL-22-GLP-1R ligand fusion protein or IL-22 alone were administered twice weekly i.p. at the following doses: 1, 4, 16, 64 and 256 ng/g of IL-22 (0.12-15.4 nmoles/g) and the molar equivalents for IL-22-GLP-1 fusion proteins (n=3 per regimen, except for the lowest dose where n=2); control mice received PBS control only. A fasted Intraperitoneal glucose tolerance tests (IPGTT) was performed (2 g kg-i glucose) on day 14 when the experiment was terminated (tissues were not kept for analysis). Body weight was recorded on days 0, 5, 10 and 13.

[3] = system: Murine MIN6N8 cells; assay: ERAI-sXBP1 reporter ER stress in MIN6N8 cells with 0.5 mM palmitate; assay type: cell-based; settings: for ER stress caused by the protein alone: 15.4 nM, no palmitate; for ER stress caused by the protein alone / protection from palmitate-induced ER stress: 24 hours; for protection from palmitate-induced ER stress: co-treated with 0.5 mM palmitate, increasing concentrations; for in vitro efficacy for suppression of ER and oxidative stress (conclusion): murine and human cells
Protocol: (§2) Cell culture: Murine MIN6N8 cells were tested negative for mycoplasma. Cells were routinely cultured in phenol-red free DMEM (Life Technologies) containing 25 mM glucose (3.4 g/L sodium bicarbonate, 50 U/mL penicillin and streptomycin, 71.5 μM β-mercaptoethanol and 10% heat inactivated fetal bovine serum) and transferred to DMEM as above with 5.5 mM glucose 48 h prior to experimentation. Human LS174T cells were cultured in DMEM containing 10% heat-inactivated fetal bovine serum, 50 U mL^−1 penicillin and streptomycin.
ER Stress Measurement: MIN6N8 cells were transfected with the ERAI reporter plasmid (F-XBP1ΔDBD-venus, using Lipofectamine 2000 according to the manufacturer's instructions. For ERAI there was negligible fluorescence in the absence of ER stressors, but upon induction of ER stress, splicing of XBP1 mRNA by IRE1a results in the translation of Venus but not an active form of XBP1. Fluorescence was measured (excitation: 485 nm; emission: 520 nm) using a POLARstar Omega plate reader and cells were treated 48 h after transfection. […] After 24 h, ERAI-sXBP1 GFP reporter fluorescence was measured.

[4] = system: Human LS174T cells; assay: Oxidative stress (nitrite, Griess assay) in LS174T cells with 0.5 mM palmitate; assay type: cell-based; settings: 2 h prior to 0.5 mM palmitate for 30 min
Protocol: as §2
The Griess Reagent Kit for Nitrite Determination was performed according to the manufacturer's instructions (Molecular Probes) to assess the intracellular levels of nitrite (the stable metabolite of nitric oxide) using lysates of β-cells prepared in RIPA buffer (150 mM NaCl, 1% NP40, 0.5% sodium deoxycholate, 0.1% SDS, 50 mM Tris, pH 7.5).

[5] = system: STAT3 phosphorylation; assay: pStat3 staining in pancreatic islets vs liver, intestine and skin; assay type: in vivo, C57BL/6 mice; settings: for pStat3 ratio pancreatic islets vs intestine, fold change relative to human IL-22 / pStat3 ratio pancreatic islets vs liver, fold change relative to human IL-22 / pStat3 ratio pancreatic islets vs skin, fold change relative to human IL-22: molar equivalent of 256 ng/g IL-22, 30 min
Protocol: as §1
To assess in vivo activation of the IL-22 receptor signaling pathway, after 30 min the mice were sacrificed and the following tissues were snap frozen and sections were prepared for each mouse: pancreas, skin (ear, tail), colon (rolled), and liver. Sections were stained by immunofluorescence for phosphorylated STAT3 using the Phospho-Stat3 (Tyr705) (D3A7) antibody.

Molecule	clearance / serum concentration over the first 2 hours [1]	body weight changes during treatment ([2]; days 0, 5, 10 and 13)	mean reduction in the increased AUC of the IPGTT of HFD vs normal chow fed control mice ([2]; doses >0.96 nmoles/g, two-week therapy)	efficacy in IPGTT below 0.96 nmoles/g ([2]; two lowest doses)	ER stress caused by the protein alone [3]	fold more protein required for the same effect as recombinant mouse IL-22 in reducing ER stress ([3]; murine MIN6N8 cells, 0.5 mM palmitate, 24 h)	protection from palmitate-induced oxidative stress (nitrite production) [4]	protection from palmitate-induced ER stress [3]	in vitro efficacy for suppression of ER and oxidative stress (conclusion) [3]	STAT3 phosphorylation in tissues in vivo ([5]; 30 min after administration)	pStat3 ratio pancreatic islets vs intestine, fold change relative to human IL-22 [5]	pStat3 ratio pancreatic islets vs liver, fold change relative to human IL-22 [5]	pStat3 ratio pancreatic islets vs skin, fold change relative to human IL-22 [5]
human IL-22: recombinant human IL-22	cleared slightly more slowly	little change in body weight	> 50%	diminished substantially	did not cause ER stress	~16 fold							
MPBS-51: IL-22-GLP-1R ligand fusion protein, sequence in FIG. 36, made by Novo Nordisk A/S (protein, MPBS-51 - fusion protein comrpsing a GLP-1 ligand and IL-22) EGTFTSDVSSYLEGQAAKEFIAWLVKGRGGGSSSGGGSSSGGGSSSGGGSSSGAPISSHCRLDKSNFQQPYITNRTFMLAKEASLADNNTDVRLIGEKLFHGVSMSERCYLMKQVLNFTLEEVLFPQSDRFQPYMQEWPFLARLSNRLSTCHIEGDDLHIQRNVQKLKDTVKKLGESGEIKAIGELDLLFMSLRNACIGGSHHHHHH	lower and somewhat more extended/later peak concentration				did not cause ER stress		did not effectively suppress oxidative stress at any of the concentrations tested	did not effectively suppress ER stress at any of the concentrations tested	appears inactive in-vitro	did induce STAT3 phosphorylation in the pancreas as well as liver and gut	not greater than for native human IL-22	not greater than for native human IL-22	113 fold
MPBS-50: IL-22-GLP-1R ligand fusion protein, sequence in FIG. 36, made by Novo Nordisk A/S (protein, MPBS-50 - fusion protein comrpsing a GLP-1 ligand and IL-22) EGTFTSDVSSYLEGQAAKEFIAWLVKGRHGEGTFTSDVSSYLEGQAAKEFIAWLVKGRAPISSHCRLDKSNFQQPYITNRTFMLAKEASLADNNTDVRLIGEKLFHGVSMSERCYLMKQVLNFTLEEVLFPQSDRFQPYMQEVVPFLARLSNRLSTCHIEGDDLHIQRNVQKLKDTVKKLGESGEIKAIGELDLLFMSLRNACIGGSHHHHHH	cleared with similar kinetics to recombinant human IL-22				did not cause ER stress		inhibited oxidative stress (nitrite production) but only toward the highest end of the concentration range used	inhibited ER stress in a dose dependent manner at a similar efficacy to a molar equivalent concentration of human IL-22	have retained in vitro efficacy		not greater than for native human IL-22	not greater than for native human IL-22	45 fold
MPBS-52: IL-22-GLP-1R ligand fusion protein, sequence in FIG. 36, made by Novo Nordisk A/S (protein, MPBS-52 - fusion protein comrpsing a GLP-1 ligand and IL-22) DLSKQMEEEAVRLFIEWLKNGGPSSGAPPPSGGSSSGGGSSSGGGSSSGGGSSSGAPISSHCRLDKSNFQQPYITNRTFMLAKEASLADNNTDVRLIGEKLFHGVSMSERCYLMKQVLNFTLEEVLFPQSDRFQPYMQEVVPFLARLSNRLSTCHIEGDDLHIQRNVQKLKDTVKKLGESGEIKAIGELDLLFMSLRNACIGGSHHHHHH	lower and somewhat more extended/later peak concentration				did not cause ER stress		effectively suppressed oxidative stress with a similar efficacy to equivalent molar concentrations of human IL-22	effectively suppressed ER stress	have retained in vitro efficacy		338 fold	396 fold	4,840 fold
